One block for each binder: values may come before it.
Experiments:
SEC = target: the molecule itself; assay: SEC
crystal structure = target: the molecule itself; assay: crystal structure
[1] = target: T1, FGL-1 Fibrinogen-like domain (FD), dimer, C-terminal Avi-tag, biotinylated (human), Q08830; assay: BLI
T1 chain: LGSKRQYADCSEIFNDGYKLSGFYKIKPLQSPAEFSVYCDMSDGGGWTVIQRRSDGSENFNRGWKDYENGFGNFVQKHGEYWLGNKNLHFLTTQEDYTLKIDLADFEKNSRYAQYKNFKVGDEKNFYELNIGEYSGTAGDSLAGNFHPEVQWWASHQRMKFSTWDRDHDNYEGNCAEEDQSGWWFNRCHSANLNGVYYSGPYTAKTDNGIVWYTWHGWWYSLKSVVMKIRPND

[2] = target: T2, FGL-1 Fibrinogen-like domain (FD), monomer, C-terminal Avi-tag, biotinylated (human), Q08830; assay: BLI
T2 chain: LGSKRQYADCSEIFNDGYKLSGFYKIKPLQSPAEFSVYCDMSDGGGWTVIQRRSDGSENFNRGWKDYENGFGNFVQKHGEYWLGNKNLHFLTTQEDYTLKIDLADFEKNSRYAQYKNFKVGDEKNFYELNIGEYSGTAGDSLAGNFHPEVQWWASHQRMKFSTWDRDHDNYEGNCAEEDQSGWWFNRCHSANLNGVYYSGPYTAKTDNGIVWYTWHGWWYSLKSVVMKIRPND

B1: FGL-1 Fibrinogen-like domain (FD), dimer, C-terminal Avi-tag, biotinylated (domain or fragment, human, UniProt Q08830 74-306, looked up)
chain: LGSKRQYADCSEIFNDGYKLSGFYKIKPLQSPAEFSVYCDMSDGGGWTVIQRRSDGSENFNRGWKDYENGFGNFVQKHGEYWLGNKNLHFLTTQEDYTLKIDLADFEKNSRYAQYKNFKVGDEKNFYELNIGEYSGTAGDSLAGNFHPEVQWWASHQRMKFSTWDRDHDNYEGNCAEEDQSGWWFNRCHSANLNGVYYSGPYTAKTDNGIVWYTWHGWWYSLKSVVMKIRPND
modifications: biotin on the Avi-tag (BirA)
stoichiometry N (SEC): 2

B2: FGL-1 FD dimer (without Avi-tag) (domain or fragment, human, UniProt Q08830 74-306, looked up)
chain: LGSKRQYADCSEIFNDGYKLSGFYKIKPLQSPAEFSVYCDMSDGGGWTVIQRRSDGSENFNRGWKDYENGFGNFVQKHGEYWLGNKNLHFLTTQEDYTLKIDLADFEKNSRYAQYKNFKVGDEKNFYELNIGEYSGTAGDSLAGNFHPEVQWWASHQRMKFSTWDRDHDNYEGNCAEEDQSGWWFNRCHSANLNGVYYSGPYTAKTDNGIVWYTWHGWWYSLKSVVMKIRPND
binding result (crystal structure): binds

Kd [1]: 16.8 nM
Kd [2]: 740 nM
B3: LAG-3 (soluble analyte in BLI), P18627 23-450 (receptor)
chain: LQPGAEVPVVWAQEGAPAQLPCSPTIPLQDLSLLRRAGVTWQHQPDSGPPAAAPGHPLAPGPHPAAPSSWGPRPRRYTVLSVGPGGLRSGRLPLQPRVQLDERGRQRGDFSLWLRPARRADAGEYRAAVHLRDRALSCRLRLRLGQASMTASPPGSLRASDWVILNCSFSRPDRPASVHWFRNRGQGRVPVRESPHHHLAESFLFLPQVSPMDSGPWGCILTYRDGFNVSIMYNLTVLGLEPPTPLTVYAGAGSRVGLPCRLPAGVGTRSFLTAKWTPPGGGPDLLVTGDNGDFTLRLEDVSQAQAGTYTCHIHLQEQQLNATVTLAIITVTPKSFGSPGSLGKLLCEVTPVSGQERFVWSSLDTPSQRSFSGPWLEAQEAQLLSQPWQCQLYQGERLLGAAVYFTELSSPGAQRSGRAPGALPAGHL
modifications: not checked

Source: doi:10.1101/2025.08.05.668721 (bioRxiv, 2025)
